Data on two molecules can be found in publication PMC11515973, “8-Oxoguanine DNA Glycosylase1 conceals oxidized guanine in nucleoprotein-associated RNA of respiratory syncytial virus”.

This data set addresses OGG1 (ENZ-253, ProSpec) (UniProt O15527 1-345). In words: EMSA. As to conditions: protein: commercial, label: Cy5. For orientation: In EMSA bound probe runs differently from free probe, usually more slowly.

Chain of OGG1 (ENZ-253, ProSpec) (O15527 whole entry): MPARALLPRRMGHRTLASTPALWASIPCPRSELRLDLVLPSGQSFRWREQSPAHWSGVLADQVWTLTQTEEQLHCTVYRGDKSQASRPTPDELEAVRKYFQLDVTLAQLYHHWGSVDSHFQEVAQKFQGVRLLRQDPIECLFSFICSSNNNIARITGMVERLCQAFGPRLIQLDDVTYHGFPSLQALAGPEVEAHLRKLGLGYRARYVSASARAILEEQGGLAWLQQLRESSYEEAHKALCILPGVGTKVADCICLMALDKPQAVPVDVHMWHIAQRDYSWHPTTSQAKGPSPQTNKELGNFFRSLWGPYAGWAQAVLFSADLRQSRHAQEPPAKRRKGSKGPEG

Regarding GGGGCAAAUGCAAACAUGUCCAAAAACAAGGACCAACGCA (structured_RNA, single 8-oxoguanine at the end of GGGG) [8oxo-rG, undenatured], the binding result (predicted secondary structure) is given as “binds”.

B1: 8oxo-rG:rC (dsRNA)
RNA 1: GGGGCAAAUGCAAACAUGUCCAAAAACAAGGACCAACGCA
RNA 2: UGCGUUGGUCCUUGUUUUUGGACAUGUUUGCAUUUGCCCC
modifications: single 8-oxoguanine at the end of GGGG
Regarding B1, under “annealed duplex”, the binding result was “binds”.
